For 43 substances, logFC.mEQ.over.Luc results are on record in patent publication US20240368668A1, “SUBSTRATES AND BIOMARKERS OF ADAMTS7” (The Broad Institute, Inc., priority 2021, published 2024).

Square brackets hold non-standard residues; d marks the D form. Ends that are not written are not given here. Met(O) = CS(=O)CC[C@H](N)C(=O)O

One test concerns the target T1, mouse ADAMTS7 (Mus musculus, UniProt Q68SA9, E373Q).
T1 construct: Full-length mouse Adamts7 1-1857 (Uniprot Q68SA9, WT or E373Q catalytic mutant); expressed in transfected cells; host or cells: Human Coronary Artery Smooth Muscle Cells (HCA-SMC, Lonza), adenovirus 50 MOI
T1 sequence (Q68SA9 221-1657 E373Q): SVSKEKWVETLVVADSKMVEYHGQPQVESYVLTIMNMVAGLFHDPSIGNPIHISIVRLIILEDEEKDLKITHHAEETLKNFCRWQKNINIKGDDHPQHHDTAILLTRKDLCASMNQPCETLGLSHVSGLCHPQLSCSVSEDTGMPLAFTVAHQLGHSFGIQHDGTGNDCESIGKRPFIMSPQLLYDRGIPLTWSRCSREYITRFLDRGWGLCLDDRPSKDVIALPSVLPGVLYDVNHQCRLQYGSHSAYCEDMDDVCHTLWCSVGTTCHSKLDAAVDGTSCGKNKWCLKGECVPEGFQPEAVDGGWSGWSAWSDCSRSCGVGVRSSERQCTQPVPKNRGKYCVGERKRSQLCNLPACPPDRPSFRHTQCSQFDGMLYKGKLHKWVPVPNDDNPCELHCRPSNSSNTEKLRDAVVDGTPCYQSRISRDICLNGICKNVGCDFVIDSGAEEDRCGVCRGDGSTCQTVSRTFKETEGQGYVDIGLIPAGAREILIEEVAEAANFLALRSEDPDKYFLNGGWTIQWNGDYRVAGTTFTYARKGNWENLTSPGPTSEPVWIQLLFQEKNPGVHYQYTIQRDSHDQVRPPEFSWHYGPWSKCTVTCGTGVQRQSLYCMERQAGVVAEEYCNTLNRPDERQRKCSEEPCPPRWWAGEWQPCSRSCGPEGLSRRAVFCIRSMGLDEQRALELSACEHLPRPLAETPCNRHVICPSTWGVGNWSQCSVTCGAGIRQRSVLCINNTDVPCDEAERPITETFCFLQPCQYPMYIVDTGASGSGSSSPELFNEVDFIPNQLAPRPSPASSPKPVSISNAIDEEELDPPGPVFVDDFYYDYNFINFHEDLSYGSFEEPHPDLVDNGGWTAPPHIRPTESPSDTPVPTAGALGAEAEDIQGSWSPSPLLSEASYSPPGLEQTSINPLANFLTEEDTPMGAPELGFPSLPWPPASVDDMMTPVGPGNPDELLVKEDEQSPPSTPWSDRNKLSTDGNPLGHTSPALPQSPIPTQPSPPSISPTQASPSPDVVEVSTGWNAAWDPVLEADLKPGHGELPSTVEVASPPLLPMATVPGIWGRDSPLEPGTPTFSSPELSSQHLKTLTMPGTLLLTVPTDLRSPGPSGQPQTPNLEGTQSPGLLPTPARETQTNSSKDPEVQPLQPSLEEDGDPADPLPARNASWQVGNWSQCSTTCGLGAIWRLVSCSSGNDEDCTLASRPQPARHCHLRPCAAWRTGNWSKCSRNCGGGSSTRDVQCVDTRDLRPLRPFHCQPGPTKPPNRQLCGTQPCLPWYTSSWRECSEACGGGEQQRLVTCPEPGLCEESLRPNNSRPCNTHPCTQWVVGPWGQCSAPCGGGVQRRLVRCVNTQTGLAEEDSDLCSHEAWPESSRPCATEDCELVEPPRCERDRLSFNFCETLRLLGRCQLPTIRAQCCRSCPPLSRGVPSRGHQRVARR
The test can be described thus: TMT10 TAILS N-terminomics, SMC2 experiment (process replicates, trypsin/AspN digest). The following applies: SMC2_TAILS HC; log fold change of N-terminal peptide, Ad-mADAMTS7 EQ over Luc. Type of test: cell-based. In a few lines: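 Full-length mouse ADAMTS7 (WT or E373Q mutant, C-terminal 3xFLAG) or luciferase was transduced via adenovirus, 50 MOI, into HCA-SMC (SMC1, SMC2) or HUVEC. SMC1: pooled media, technical triplicates 400 ug; SMC2: process triplicates 300 ug; HUVEC: process triplicates 200 ug, bFGF2 10 ng/ml.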
The substance “LOXL1_218 (AVASAGVIYPYQPR; listed as Homo sapiens)” came in with a logFC.mEQ.over.Luc of −0.11.
Take “LOXL2_45 (HQPQAPANVAKIQLR; listed as Homo sapiens)”: the logFC.mEQ.over.Luc is listed as 0.11.
As to “LTBP2_79 (VAGLQPVER; listed as Homo sapiens)”, the logFC.mEQ.over.Luc is listed as −0.09.
Substance “LTBP2_250 (SAAGEGTLAR; listed as Homo sapiens)” displayed a logFC.mEQ.over.Luc of −0.21.
“LTBP2_290 (QHVGLSR; listed as Homo sapiens)” registered a logFC.mEQ.over.Luc of −0.10.
Substance “LTBP2_502 (LVENSVETRPPPWLPASPGHSLW; listed as Homo sapiens)” displayed a logFC.mEQ.over.Luc of −0.18.
The substance “LTBP3_103 (LTGSGFR; listed as Homo sapiens)” came in with a logFC.mEQ.over.Luc of −0.92.
Take “LTBP3_208 (FLVPLGPGQISA; listed as Homo sapiens)”: the logFC.mEQ.over.Luc is recorded as −0.03.
In turn, “MAP4_815 (AVASTGPSSR; listed as Homo sapiens)” showed a logFC.mEQ.over.Luc of −0.02.
For the substance “MAP4_816 (VASTGPSSR; listed as Homo sapiens)”, the logFC.mEQ.over.Luc amounted to 0.02.
The substance “MMP1_100 (FVLTEGNPR; listed as Homo sapiens)” returned a logFC.mEQ.over.Luc of −0.05.
Same read-out and setting: under “MMP1_185 (FQPGPGIGG; listed as Homo sapiens)” stands −0.37; under “NBEA_1892 (LEKVAPLLR; listed as Homo sapiens)”, −0.08.
Same read-out and setting: under “NID1_360 (FHQQHPQVI; listed as Homo sapiens)” stands −0.22; under “NID2_291 (HSSVPLGR; listed as Homo sapiens)”, 0.00.
In turn, “NID2_951 (YAYPGAR; listed as Homo sapiens)” showed a logFC.mEQ.over.Luc of −0.06.
In turn, “PAK4_141 (HSEAGGGSG; listed as Homo sapiens)” returned a logFC.mEQ.over.Luc of 0.69.
For “PLIN3_75 (VSGAQPILSKL; listed as Homo sapiens)”, the logFC.mEQ.over.Luc amounted to 0.07.
As for “POSTN_727 (IITGPEIKYTR; listed as Homo sapiens)”, the logFC.mEQ.over.Luc is reported as −0.09.
Substance “PPP1R18_295 (LSETLTR; listed as Homo sapiens)” had a logFC.mEQ.over.Luc of 0.03.
With “PTPRF_1859 (MRYEGVVDMFQTVKTLR; listed as Homo sapiens)”, the logFC.mEQ.over.Luc is reported as −0.08.
On to “QSOX1_210 (HKGVAVR; listed as Homo sapiens)”, for which the logFC.mEQ.over.Luc is −0.49.
For “SHC2_267 (VAKDPINQRACHIL; listed as Homo sapiens)”, the logFC.mEQ.over.Luc is recorded as 0.04.
In turn, “SPOCK1_27 (LAGGAGPNHGNFL; listed as Homo sapiens)” gave a logFC.mEQ.over.Luc of −0.65.
In turn, “SRGN_59 (LLPGESNKIPR; listed as Homo sapiens)” gave a logFC.mEQ.over.Luc of 0.05.
“TNPO2_744 (VQ[Met(O)]VLNNLVEII[code n]RP[code n]TPKTLLE; listed as Homo sapiens)” displayed a logFC.mEQ.over.Luc of 0.06.
As for “TNS1_236 (QEGLAGYQR; listed as Homo sapiens)”, the logFC.mEQ.over.Luc is reported as −0.59.
Substance “TRGC2_86 (HRCIVRHENNK; listed as Homo sapiens)” returned a logFC.mEQ.over.Luc of 0.23.
Take “TTN_5975 (VKEPPVEFTKPL; listed as Homo sapiens)”: the logFC.mEQ.over.Luc is reported as −0.19.
Take “VAT1_42 (AASPPLLR; listed as Homo sapiens)”: the logFC.mEQ.over.Luc was found to be 0.27.
Same read-out and setting: then “VIM_314 (QESTEYR; listed as Homo sapiens)”, with −0.22; and “VIM_333 (LKGTNESLER; listed as Homo sapiens)”, with −0.09.

The same test, now with this note: SMC2_TAILS HC; log fold change, mEQ over Luc.
For the substance “COL1A2_80 (QYDGKGVGLGPGPMGLMGPR; listed as Homo sapiens)”, the logFC.mEQ.over.Luc is −0.33.
“COL1A2_270 (VGNAGPAGPAGPR; listed as Homo sapiens)” came in with a logFC.mEQ.over.Luc of −0.05.
“COL1A2_305 (LTGAKGAAGLPGVAGAPGLPGPR; listed as Homo sapiens)” yielded a logFC.mEQ.over.Luc of −0.32.
The substance “COL1A2_630 (VGTAGPSGPSGLPGER; listed as Homo sapiens)” gave a logFC.mEQ.over.Luc of −0.30.
Still for that read-out and setting: then “COL1A2_866 (LLGAPGILGLPGSR; listed as Homo sapiens)”, with −0.46; and “COL1A2_960 (AGAPGPHGPVGPAGKHGNR; listed as Homo sapiens)”, with −0.16.
On the same count and under the same terms, then “COL1A2_1028 (LQGLPGIAGHHGDQGAPGSVGPAGPR; listed as Homo sapiens)”, with −0.25; and “COL4A2_71 (YNGPPGLQGFPGLQGR; listed as Homo sapiens)”, with −0.32; and “COL18A1_1505 (LQPPVVQLHDSNPYPR; listed as Homo sapiens)”, with −0.01.

The test is the same for the next values; noted with them: log fold change, ADAMTS7 EQ over luciferase.
“SERBP1_56 (QAAAQTNSNAAGKQLR; listed as Homo sapiens)” registered a logFC.mEQ.over.Luc of −0.09.
In turn, “SRGN_59 (LLPGESNKIPR; listed as Homo sapiens)” showed a logFC.mEQ.over.Luc of −0.10.
With “THBS2_290 (LSENLKR; listed as Homo sapiens)”, the logFC.mEQ.over.Luc came to 0.59.
Still for that read-out and setting: under “VIM_314 (QESTEYR; listed as Homo sapiens)” stands 0.03.
The same measure, in the same setting: under “VIM_333 (LKGTNESLER; listed as Homo sapiens)” stands −0.03.
